Laboratory results: paper PMC3641832

Tests used:
[1] = molecular target: cce_0566 from Cyanothece sp. ATCC 51142 (DUF269 family protein) (Cyanothece sp. ATCC 51142); experiment: NMR 15N relaxation
[2] = molecular target: cce_0566 from Cyanothece sp. ATCC 51142 (DUF269 family protein) (Cyanothece sp. ATCC 51142); experiment: crystal structure
[3] = molecular target: cce_0566 from Cyanothece sp. ATCC 51142 (DUF269 family protein) (Cyanothece sp. ATCC 51142); experiment: SEC

Measured: stoichiometry N

cce_0566 from Cyanothece sp. ATCC 51142 (DUF269 family protein) (natural protein)
2: all assays above
